The results in this text go back to the supplement of paper PMC10567573.

± gives the standard deviation.

The data set can be described thus: protein stability index of a GFP-peptide fusion (GPS, HEK-293T) (PSI 1-6); higher = more stable.
[1] abbreviates: treatment: DMSO, c terminus: a fixed tail appended.
The mark [2] stands for this setting: treatment: MLN4924 1 uM, 8 h, c terminus: a fixed tail appended.
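Also: 24-mer peptide tiles fused after GFP, lentivirally expressed, FACS-sorted into six equal bins by GFP/DsRed ratio, decoded by Illumina sequencing, PSI is the read-weighted mean bin number.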

Take QLKIRKSNQIPTEVRSKAEEVVSF [FUNDC2]: the protein stability index runs as follows: under setting [1], 3.9 ± 0.45; under setting [2], 3.88 ± 0.25.

Turning to QLQCSPAELQAELLHSQARLAELE [FBF1], the protein stability index by setting is: under setting [1], 3.88 ± 0.41; under setting [2], 3.98 ± 0.26.

In the case of QLRFQHSQDVSDCYLELFPAHLYF [PLEKHN1], the protein stability index is, setting by setting: under setting [1], 2.32 ± 0.54; under setting [2], 2.27 ± 0.28.

For the sequence QLTEKLARVNENLARKIASRNEFD [SSNA1], the protein stability index is, setting by setting: under setting [1], 2.85 ± 0.18; under setting [2], 3.24 ± 0.39.

QMPKFDLGPLLSEPLVLYNQNLSN [MYOZ1]: the protein stability index runs as follows: under setting [1], 3.15 ± 0.1; under setting [2], 3 ± 0.11.

Take QPKKNNVMARTRLVVPNKGYSSLD [FAM219A]: the protein stability index by setting is: under setting [1], 3.85 ± 0.3; under setting [2], 4.07 ± 0.27.

Regarding QPRGGVSSRIEQGEWGGRHPSWPW, the protein stability index reads like this: under setting [1], 2.99 ± 0.44; under setting [2], 3 ± 0.68.

For the sequence QQELETLPTTKMAQTNPTPGSLGP [CRYBA1], the protein stability index reads like this: under setting [1], 5.15 ± 0.1; under setting [2], 5.09 ± 0.13.

QQFRADPSTASLLLCPGGLDHKLN [TIAF1]: the protein stability index by setting is: under setting [1], 3.48 ± 0.28; under setting [2], 3.58 ± 0.34.

For the sequence QRALHKYSLMKRQMMSATAQNREP [SNX8], the protein stability index reads like this: under setting [1], 3.24 ± 0.29; under setting [2], 3.32 ± 0.18.

Consider QSFREQEEPSNKRVRPLARVTSLA [NET1], for which the protein stability index is, setting by setting: under setting [1], 4.21 ± 0.17; under setting [2], 4.23 ± 0.097.

For QSSHYLQWILDKQDLLKERQKDLK [CCNC], the protein stability index runs as follows: under setting [1], 2.87 ± 0.36; under setting [2], 3.16 ± 0.27.

As for QTPILEGRSGPGCAVLDDSIYLVG [KLHL14], the protein stability index was 2.7 ± 0.23 under setting [1] and 2.63 ± 0.28 under setting [2].

As to QVLNETRNQYEALVETNRREVEQW [KRT33B], the protein stability index is, setting by setting: under setting [1], 4.24 ± 0.43; under setting [2], 4.5 ± 0.17.

QWWASVGMDDFLGVYSMPAGTKVF [TLE6]: the protein stability index under setting [1] stood at 2.23 ± 0.82 and the protein stability index under setting [2] turned out to be 2.26 ± 0.45.

Take RAGPDSAGIALYSHEDVCVFKCSV [CARM1]: the protein stability index is, setting by setting: under setting [1], 2.35 ± 0.47; under setting [2], 2.06 ± 0.41.

On to RALQEEERAAAQARRELQAEREAL [ZBED3], for which the protein stability index is 5.36 ± 0.19 under setting [1] and 5.45 ± 0.18 under setting [2].

As to RALQERLGQQQRDMRRDEEGSLCA [FBF1], the protein stability index amounted to 4.95 ± 0.36 under setting [1] and 5.03 ± 0.32 under setting [2].

Turning to RAPGAGLGQDRQVPLWGQLLLFLV [EMD], the protein stability index is 2.49 ± 0.17 under setting [1] and 2.09 ± 0.37 under setting [2].

RCYYYEDTISTIKSVAWEGGACPA [NCF4] yielded a protein stability index under setting [1] of 2.31 ± 0.21 and a protein stability index under setting [2] of 2.43 ± 0.24.

RDEVAFHTAKCEKLQKEKEELERR [MTUS2]: the protein stability index by setting is: under setting [1], 5.61 ± 0.17; under setting [2], 5.44 ± 0.33.

As to RDRQQAPGLGQESKAPGSCDPGTD [TLE6], the protein stability index stood at 5.45 ± 0.12 under setting [1] and 5.46 ± 0.16 under setting [2].

Take REHCPENRERVVSLIEDLQRELEI [ZNF449]: the protein stability index was found to be 3.91 ± 0.21 under setting [1] and 4 ± 0.28 under setting [2].

REIEELLAEAKYYLVQGLVEECQA [KCTD10]: the protein stability index is, setting by setting: under setting [1], 2.02 ± 0.34; under setting [2], 2.16 ± 0.25.

Turning to RELDAISTNEEEKEENEAESDVKH [PRIM1], the protein stability index is, setting by setting: under setting [1], 5.57 ± 0.17; under setting [2], 5.62 ± 0.24.

Consider REQADSCREQLDIMNDLSNRVWSI [TRIM14], for which the protein stability index is, setting by setting: under setting [1], 2.23 ± 0.11; under setting [2], 2.28 ± 0.46.

RFGQTIQSFTLRGDHRSPASAQKF [NET1]: the protein stability index is 3.14 ± 0.27 under setting [1] and 3.27 ± 0.32 under setting [2].

Turning to RFPLDSAQDPDVGTNTVSFYTLSP [PCDHGC5], the protein stability index runs as follows: under setting [1], 3.68 ± 0.15; under setting [2], 3.88 ± 0.12.

For RFVQAEGRRATLQRLVEALEENEL [TRADD], the protein stability index came to 3.57 ± 0.39 under setting [1] and 3.62 ± 0.37 under setting [2].

With RGEGIQAPSFSSYLYFLFCPTLIY [SOAT2], the protein stability index is 3.49 ± 0.45 under setting [1] and 3.36 ± 0.69 under setting [2].

On to RGFVFGGRYRDARMNDLHYLNLDT [KLHDC2], for which the protein stability index reads like this: under setting [1], 2.71 ± 0.33; under setting [2], 2.59 ± 0.35.

As for RGKLKKTEEELRRIQTQKEQAKEN [ZC2HC1C], the protein stability index under setting [1] is 5.31 ± 0.13 and the protein stability index under setting [2] was determined as 5.39 ± 0.13.

Consider RHCPLPQATFWGLVTPRSWSCHT [SOAT2], for which the protein stability index (treatment: DMSO, c terminus: native) worked out at 2.55 ± 0.64 and the protein stability index (treatment: MLN4924 1 uM, 8 h, c terminus: native) was 2.44 ± 0.62.

In the case of RIHVGKKYGDIPRGIFVVRGENVV [LSM1], the protein stability index is, setting by setting: under setting [1], 2.37 ± 0.17; under setting [2], 2.24 ± 0.15.

RIQIWFQNRRAKLKRSHRESQFLM [HESX1]: the protein stability index by setting is: under setting [1], 2.43 ± 0.76; under setting [2], 2.15 ± 0.67.

Regarding RKSVPGPGNRTCTGTSKRYQLCRV [ADAMTSL2], the protein stability index is 2.91 ± 0.41 under setting [1] and 2.68 ± 0.093 under setting [2].

As to RLAQVKRKILVLDLDETLIHSHHD [CTDNEP1], the protein stability index runs as follows: under setting [1], 2.41 ± 0.73; under setting [2], 2.58 ± 0.36.

Turning to RLDYLNLKGARLTVEQGCQILDSL [FBXO39], the protein stability index runs as follows: under setting [1], 3.25 ± 0.088; under setting [2], 3.54 ± 0.22.

Consider RLKEMKLLRDQFVKALEDFEDLCD [FAM9B], for which the protein stability index came out at 2.27 ± 0.13 under setting [1] and 2.52 ± 0.38 under setting [2].

As to RLLSDATVEKDESHAGKVVLRSWY [FAM50A], the protein stability index reads like this: under setting [1], 3.02 ± 0.11; under setting [2], 3.26 ± 0.12.

As to RLVDRDSVWGYDLGLRSLIPAVLT [MYORG], the protein stability index reads like this: under setting [1], 2.25 ± 0.54; under setting [2], 2.28 ± 0.12.

Take RLVSSPCCIVTSTYGWTANMERIM [HSP90AB1]: the protein stability index under setting [1] stood at 2.86 ± 0.68 and the protein stability index under setting [2] came out at 2.35 ± 0.33.

RNLETQHKVLELTAENERLQKKVE [CEBPB] returned a protein stability index under setting [1] of 5.12 ± 0.57 and a protein stability index under setting [2] of 5.49 ± 0.049.

On to RNLRTQQEIEDKMKGFSFKEDTLL [C8orf76], for which the protein stability index runs as follows: under setting [1], 4.11 ± 0.12; under setting [2], 4.16 ± 0.19.

On to RNSKASAYCLDQGAEDGDRAILYP [GALNT9], for which the protein stability index stood at 4.32 ± 0.3 under setting [1] and 4.4 ± 0.2 under setting [2].

On to RPRRYVQPPEMIGPMRPEQFSDEV [GAGE1], for which the protein stability index was 3.86 ± 0.26 under setting [1] and 4.41 ± 0.32 under setting [2].

On to RPTYFEMKNEKLLSKASEPKYQLF [RNF180], for which the protein stability index came to 2.54 ± 0.28 under setting [1] and 2.78 ± 0.19 under setting [2].

As to RQHIPDTYLCERCQPRNLDKERAV [KMT2E], the protein stability index turned out to be 2.81 ± 0.47 under setting [1] and 3.35 ± 0.15 under setting [2].

Turning to RQNLSKSWLDVQVSNTYVKQKTSA [TPD52L3], the protein stability index turned out to be 3.83 ± 0.28 under setting [1] and 3.8 ± 0.25 under setting [2].

Consider RQQRLNQLEKPPEKEEDHAPEFIK [FAM107A], for which the protein stability index turned out to be 5.33 ± 0.15 under setting [1] and 5.34 ± 0.35 under setting [2].

Sequence RQVQSLMVHQRKLEAELLQIEERH [SMARCE1] yielded a protein stability index under setting [1] of 4 ± 0.12 and a protein stability index under setting [2] of 4.23 ± 0.17.

As to RQVVDILWSDPMAQEGCKANTIRG [PPEF2], the protein stability index reads like this: under setting [1], 3.14 ± 0.31; under setting [2], 3.55 ± 0.38.

Regarding RQYRSIEVLIGAGYSTPADIWSTA [SRPK2], the protein stability index runs as follows: under setting [1], 1.9 ± 0.37; under setting [2], 2 ± 0.44.

Consider RREEEERRRIEEERLRLEQQKQQI [ACBD3], for which the protein stability index was found to be 5.35 ± 0.19 under setting [1] and 5.05 ± 0.41 under setting [2].

Consider RRGELRHITKLKPWSLFDVLVEKY [SRPK2], for which the protein stability index runs as follows: under setting [1], 2.4 ± 0.53; under setting [2], 2.12 ± 0.057.

For RRGQEPLSALLQFGVTYLEDYSAE [BCL2L13], the protein stability index worked out at 3.11 ± 0.3 under setting [1] and 3.17 ± 0.43 under setting [2].

As to RRGVSDWDLRMKLHDRGAQVIHPQ [DNAAF3], the protein stability index amounted to 3.58 ± 0.092 under setting [1] and 3.55 ± 0.35 under setting [2].

Consider RRKEYDALKAAKREQEKKPKKEAN [LRRC59], for which the protein stability index by setting is: under setting [1], 5.25 ± 0.15; under setting [2], 5.17 ± 0.22.

Turning to RRMTVVGRLEGLIQPDDLINQLTF [FAF2], the protein stability index turned out to be 2.36 ± 0.2 under setting [1] and 2.33 ± 0.49 under setting [2].

Sequence RRRQRSEKKKAHYRQSSFPHCSDL [KCNA4] had a protein stability index under setting [1] of 3.66 ± 0.16 and a protein stability index under setting [2] of 3.98 ± 0.19.

RRRRMETIVFLDKEVFASRISNPS [PCMTD2] had a protein stability index under setting [1] of 2.57 ± 0.26 and a protein stability index under setting [2] of 2.77 ± 0.38.

For the sequence RRRSRKKPSGALGSESYKSSAGSA [EHMT1], the protein stability index by setting is: under setting [1], 4.86 ± 0.32; under setting [2], 5.3 ± 0.073.

The sequence RRRWCPAGIMLLALVCLLSCLLPS [SPACA3] showed a protein stability index under setting [1] of 2.85 ± 0.55 and a protein stability index under setting [2] of 2.77 ± 0.3.

As to RSPIIDVKNDRDRVGHKSIPMRNL [SERPINB5], the protein stability index reads like this: under setting [1], 3.83 ± 0.13; under setting [2], 4 ± 0.36.

The sequence RSRGKVLKTKDGKLPFCAMGVSSV [CPOX] yielded a protein stability index under setting [1] of 3.4 ± 0.2 and a protein stability index under setting [2] of 3.15 ± 0.41.

As for RTLSAFLCLGGLACLIVMFLPEKK [SLC22A15], the protein stability index is, setting by setting: under setting [1], 3.25 ± 0.42; under setting [2], 2.64 ± 0.36.

In the case of RVFKARIYTNRYETNEEDKTLQEI [FBXO39], the protein stability index reads like this: under setting [1], 2.98 ± 0.34; under setting [2], 3.43 ± 0.38.

For RVPQTWSKRLYGVYDNEKKLQLQL [PLD5], the protein stability index under setting [1] is 2.39 ± 0.32 and the protein stability index under setting [2] came to 2.31 ± 0.28.

For RWDPVRRRFIQSCPIIRIPNRFLR [KLHDC10], the protein stability index turned out to be 2.48 ± 0.42 under setting [1] and 2.49 ± 0.2 under setting [2].

As for RYLFLDGDSHYEIEIVHISTVQIL [ZFYVE21], the protein stability index is, setting by setting: under setting [1], 2.89 ± 0.26; under setting [2], 2.61 ± 0.4.

Consider SALTFLRVDQDKDKDCSLDCAGSP [SMOC2], for which the protein stability index runs as follows: under setting [1], 4.92 ± 0.42; under setting [2], 5 ± 0.088.

As to SAYISNYAFANVFHGWKYMFGLVI [SLC2A12], the protein stability index amounted to 2.91 ± 0.38 under setting [1] and 2.9 ± 0.67 under setting [2].
